Assay results taken from PMC4379501.

Target: T1, cyclo[RGDfK] cell adhesive peptide, surface-bound, light-activated from c[RGD(DMNPB)fK]
T1 chain: RGDFK
Assay: QCM-D; cells (3 × 10^5 cells/ml) injected over a gold-coated quartz crystal carrying a c[RGD(DMNPB)fK]-terminated PEG-thiol SAM, sedimented in stopped flow, peptide activated in situ by LED (360 nm, 1.35 mW cm^-2, 30 s); Δf1 = frequency drop within the first minute after irradiation; 37°C, PBS; also with 10 μM cytochalasin D or 10 μM anti-αVβ3 antibody
Settings: remark: other sources report otherwise

B1: integrin αVβ3 on human umbilical vein endothelial cells (HUVEC), P06756 31-1048; P05106 27-788 (receptor)
chain 1: FNLDVDSPAEYSGPEGSYFGFAVDFFVPSASSRMFLLVGAPKANTTQPGIVEGGQVLKCDWSSTRRCQPIEFDATGNRDYAKDDPLEFKSHQWFGASVRSKQDKILACAPLYHWRTEMKQEREPVGTCFLQDGTKTVEYAPCRSQDIDADGQGFCQGGFSIDFTKADRVLLGGPGSFYWQGQLISDQVAEIVSKYDPNVYSIKYNNQLATRTAQAIFDDSYLGYSVAVGDFNGDGIDDFVSGVPRAARTLGMVYIYDGKNMSSLYNFTGEQMAAYFGFSVAATDINGDDYADVFIGAPLFMDRGSDGKLQEVGQVSVSLQRASGDFQTTKLNGFEVFARFGSAIAPLGDLDQDGFNDIAIAAPYGGEDKKGIVYIFNGRSTGLNAVPSQILEGQWAARSMPPSFGYSMKGATDIDKNGYPDLIVGAFGVDRAILYRARPVITVNAGLEVYPSILNQDNKTCSLPGTALKVSCFNVRFCLKADGKGVLPRKLNFQVELLLDKLKQKGAIRRALFLYSRSPSHSKNMTISRGGLMQCEELIAYLRDESEFRDKLTPITIFMEYRLDYRTAADTTGLQPILNQFTPANISRQAHILLDCGEDNVCKPKLEVSVDSDQKKIYIGDDNPLTLIVKAQNQGEGAYEAELIVSIPLQADFIGVVRNNEALARLSCAFKTENQTRQVVCDLGNPMKAGTQLLAGLRFSVHQQSEMDTSVKFDLQIQSSNLFDKVSPVVSHKVDLAVLAAVEIRGVSSPDHVFLPIPNWEHKENPETEEDVGPVVQHIYELRNNGPSSFSKAMLHLQWPYKYNNNTLLYILHYDIDGPMNCTSDMEINPLRIKISSLQTTEKNDTVAGQGERDHLITKRDLALSEGDIHTLGCGVAQCLKIVCQVGRLDRGKSAILYVKSLLWTETFMNKENQNHSYSLKSSASFNVIEFPYKNLPIEDITNSTLVTTNVTWGIQPAPMPVPVWVIILAVLAGLLLLAVLVFVMYRMGFFKRVRPPQEEQEREQLQPHENGEGNSET
chain 2: GPNICTTRGVSSCQQCLAVSPMCAWCSDEALPLGSPRCDLKENLLKDNCAPESIEFPVSEARVLEDRPLSDKGSGDSSQVTQVSPQRIALRLRPDDSKNFSIQVRQVEDYPVDIYYLMDLSYSMKDDLWSIQNLGTKLATQMRKLTSNLRIGFGAFVDKPVSPYMYISPPEALENPCYDMKTTCLPMFGYKHVLTLTDQVTRFNEEVKKQSVSRNRDAPEGGFDAIMQATVCDEKIGWRNDASHLLVFTTDAKTHIALDGRLAGIVQPNDGQCHVGSDNHYSASTTMDYPSLGLMTEKLSQKNINLIFAVTENVVNLYQNYSELIPGTTVGVLSMDSSNVLQLIVDAYGKIRSKVELEVRDLPEELSLSFNATCLNNEVIPGLKSCMGLKIGDTVSFSIEAKVRGCPQEKEKSFTIKPVGFKDSLIVQVTFDCDCACQAQAEPNSHRCNNGNGTFECGVCRCGPGWLGSQCECSEEDYRPSQQDECSPREGQPVCSQRGECLCGQCVCHSSDFGKITGKYCECDDFSCVRYKGEMCSGHGQCSCGDCLCDSDWTGYYCNCTTRTDTCMSSNGLLCSGRGKCECGSCVCIQPGSYGDTCEKCPTCPDACTFKKECVECKKFDRGALHDENTCNRYCRDEIESVKELKDTGKDAVNCTYKNEDDCVVRFQYYEDSSGKSILYVVEEPECPKGPDILVVLLSVMGAILLIGLAALLIWKLLITIHDRKEFAKFEEERARAKWDTANNPLYKEATSTFTNITYRGT
modifications: here or on the partner: cyclic peptide (cyclo); f = D-phenylalanine
  Δf1: 0.966 Hz

B2: integrin αVβ3 on stable OV-MZ-6 cell transfectants overexpressing integrin αVβ3, P06756 31-1048; P05106 27-788 (receptor)
chain 1: FNLDVDSPAEYSGPEGSYFGFAVDFFVPSASSRMFLLVGAPKANTTQPGIVEGGQVLKCDWSSTRRCQPIEFDATGNRDYAKDDPLEFKSHQWFGASVRSKQDKILACAPLYHWRTEMKQEREPVGTCFLQDGTKTVEYAPCRSQDIDADGQGFCQGGFSIDFTKADRVLLGGPGSFYWQGQLISDQVAEIVSKYDPNVYSIKYNNQLATRTAQAIFDDSYLGYSVAVGDFNGDGIDDFVSGVPRAARTLGMVYIYDGKNMSSLYNFTGEQMAAYFGFSVAATDINGDDYADVFIGAPLFMDRGSDGKLQEVGQVSVSLQRASGDFQTTKLNGFEVFARFGSAIAPLGDLDQDGFNDIAIAAPYGGEDKKGIVYIFNGRSTGLNAVPSQILEGQWAARSMPPSFGYSMKGATDIDKNGYPDLIVGAFGVDRAILYRARPVITVNAGLEVYPSILNQDNKTCSLPGTALKVSCFNVRFCLKADGKGVLPRKLNFQVELLLDKLKQKGAIRRALFLYSRSPSHSKNMTISRGGLMQCEELIAYLRDESEFRDKLTPITIFMEYRLDYRTAADTTGLQPILNQFTPANISRQAHILLDCGEDNVCKPKLEVSVDSDQKKIYIGDDNPLTLIVKAQNQGEGAYEAELIVSIPLQADFIGVVRNNEALARLSCAFKTENQTRQVVCDLGNPMKAGTQLLAGLRFSVHQQSEMDTSVKFDLQIQSSNLFDKVSPVVSHKVDLAVLAAVEIRGVSSPDHVFLPIPNWEHKENPETEEDVGPVVQHIYELRNNGPSSFSKAMLHLQWPYKYNNNTLLYILHYDIDGPMNCTSDMEINPLRIKISSLQTTEKNDTVAGQGERDHLITKRDLALSEGDIHTLGCGVAQCLKIVCQVGRLDRGKSAILYVKSLLWTETFMNKENQNHSYSLKSSASFNVIEFPYKNLPIEDITNSTLVTTNVTWGIQPAPMPVPVWVIILAVLAGLLLLAVLVFVMYRMGFFKRVRPPQEEQEREQLQPHENGEGNSET
chain 2: GPNICTTRGVSSCQQCLAVSPMCAWCSDEALPLGSPRCDLKENLLKDNCAPESIEFPVSEARVLEDRPLSDKGSGDSSQVTQVSPQRIALRLRPDDSKNFSIQVRQVEDYPVDIYYLMDLSYSMKDDLWSIQNLGTKLATQMRKLTSNLRIGFGAFVDKPVSPYMYISPPEALENPCYDMKTTCLPMFGYKHVLTLTDQVTRFNEEVKKQSVSRNRDAPEGGFDAIMQATVCDEKIGWRNDASHLLVFTTDAKTHIALDGRLAGIVQPNDGQCHVGSDNHYSASTTMDYPSLGLMTEKLSQKNINLIFAVTENVVNLYQNYSELIPGTTVGVLSMDSSNVLQLIVDAYGKIRSKVELEVRDLPEELSLSFNATCLNNEVIPGLKSCMGLKIGDTVSFSIEAKVRGCPQEKEKSFTIKPVGFKDSLIVQVTFDCDCACQAQAEPNSHRCNNGNGTFECGVCRCGPGWLGSQCECSEEDYRPSQQDECSPREGQPVCSQRGECLCGQCVCHSSDFGKITGKYCECDDFSCVRYKGEMCSGHGQCSCGDCLCDSDWTGYYCNCTTRTDTCMSSNGLLCSGRGKCECGSCVCIQPGSYGDTCEKCPTCPDACTFKKECVECKKFDRGALHDENTCNRYCRDEIESVKELKDTGKDAVNCTYKNEDDCVVRFQYYEDSSGKSILYVVEEPECPKGPDILVVLLSVMGAILLIGLAALLIWKLLITIHDRKEFAKFEEERARAKWDTANNPLYKEATSTFTNITYRGT
modifications: here or on the partner: cyclic peptide (cyclo); f = D-phenylalanine
  Δf1: 0.913 Hz
